Measurements published in patent publication US20240034774A1 (Gilead, published 2024).

B1: Antibody A-1 (antibody, human IgG1, kappa)
heavy: QVQLLQSGAAVTKPGASVRVSCEASGYNIRDYFIHWWRQAPGQGLQWVGWINPKTGQPNNPRQFQGRVSLTRHASWDFDTFSFYMDLKALRSDDTAVYFCARQRSDYWDFDVWGSGTQVTVSSASTKGPSVFPLAPSSKSTSGGTAALGCLVKDYFPEPVTVSWNSGALTSGVHTFPAVLQSSGLYSLSSVVTVPSSSLGTQTYICNVNHKPSNTKVDKKVEPKSCDKTHTCPPCPAPELLAGPDVFLFPPKPKDTLMISRTPEVTCVVVDVSHEDPEVKFNWYVDGVEVHNAKTKPREEQYNSTYRVVSVLTVLHQDWLNGKEYKCKVSNKALPLPEEKTISKAKGQPREPQVYTLPPSREEMTKNQVSLTCLVKGFYPSDIAVEWESNGQPENNYKTTPPVLDSDGSFFLYSKLTVDKSRWQQGNVFSCSVLHEALHSHYTQKSLSLSPGK
light: DIQMTQSPSSLSASVGDTVTITCQANGYLNWYQQRRGKAPKLLIYDGSKLERGVPSRFSGRRWGQEYNLTINNLQPEDIATYFCQVYEFVVPGTRLDLKRTVAAPSVFIFPPSDEQLKSGTASVVCLLNNFYPREAKVQWKVDNALQSGNSQESVTEQDSKDSTYSLSSTLTLSKADYEKHKVYACEVTHQGLSSPVTKSFNRGEC
B2: 1.36.1-1 (antibody, human IgG1, kappa)
heavy: QVQLVQSGAEVKKPGASVRVSCKASGYNIRDYFMHWWRQAPGQGLQWVGWINPKTGQPNNPRQFQGRVTMTRHASWDFDTFSAYMDLSRLRSDDTATYFCARQRTDYWDFDVWGQGTMVTVSSASTKGPSVFPLAPSSKSTSGGTAALGCLVKDYFPEPVTVSWNSGALTSGVHTFPAVLQSSGLYSLSSVVTVPSSSLGTQTYICNVNHKPSNTKVDKKVEPKSCDKTHTCPPCPAPELLAGPDVFLFPPKPKDTLMISRTPEVTCVVVDVSHEDPEVKFNWYVDGVEVHNAKTKPREEQYNSTYRVVSVLTVLHQDWLNGKEYKCKVSNKALPLPEEKTISKAKGQPREPQVYTLPPSREEMTKNQVSLTCLVKGFYPSDIAVEWESNGQPENNYKTTPPVLDSDGSFFLYSKLTVDKSRWQQGNVFSCSVLHEALHSHYTQKSLSLSPGK
light: DIQMTQSPSSLSASVGDTVTITCQANGYLNWYQQRRGKAPKLLIYDGSKLERGVPSRFSGRRWGQEYNLTINNLQPEDIATYFCQVYEFVVPGTRLDLKRTVAAPSVFIFPPSDEQLKSGTASVVCLLNNFYPREAKVQWKVDNALQSGNSQESVTEQDSKDSTYSLSSTLTLSKADYEKHKVYACEVTHQGLSSPVTKSFNRGEC
B3: 1.1.8-1 (antibody, human IgG1, kappa)
heavy: QVQLLQSGAAVTKPGASVRVSCEASGYNIRDYFIHWWRQAPGQGLQWVGWINPKTGQPNNPRQFQGRVSLTRHASWDFDTFSFYMDLKALRSDDTAVYFCARQRSDYWDFDVWGSGTQVTVSSASTKGPSVFPLAPSSKSTSGGTAALGCLVKDYFPEPVTVSWNSGALTSGVHTFPAVLQSSGLYSLSSVVTVPSSSLGTQTYICNVNHKPSNTKVDKKVEPKSCDKTHTCPPCPAPELLAGPDVFLFPPKPKDTLMISRTPEVTCVVVDVSHEDPEVKFNWYVDGVEVHNAKTKPREEQYNSTYRVVSVLTVLHQDWLNGKEYKCKVSNKALPLPEEKTISKAKGQPREPQVYTLPPSREEMTKNQVSLTCLVKGFYPSDIAVEWESNGQPENNYKTTPPVLDSDGSFFLYSKLTVDKSRWQQGNVFSCSVLHEALHSHYTQKSLSLSPGK
light: DIQMTQSPSSLSASVGDTVTITCQANGYLNWYQQRRGKAPKLLIYDASNLERGVPSRFSGRRWGQEYNLTINNLQPEDIATYFCQVYEFVVPGTRLDLKRTVAAPSVFIFPPSDEQLKSGTASVVCLLNNFYPREAKVQWKVDNALQSGNSQESVTEQDSKDSTYSLSSTLTLSKADYEKHKVYACEVTHQGLSSPVTKSFNRGEC
B4: 1.1.7-1 (antibody, human IgG1, kappa)
heavy: QVQLLQSGAAVTKPGASVRVSCEASGYNIRDYFIHWWRQAPGQGLQWVGWINPKTGQPNNPRQFQGRVSLTRHASWDFDTFSFYMDLKALRSDDTAVYFCARQRSDYWDFDVWGSGTQVTVSSASTKGPSVFPLAPSSKSTSGGTAALGCLVKDYFPEPVTVSWNSGALTSGVHTFPAVLQSSGLYSLSSVVTVPSSSLGTQTYICNVNHKPSNTKVDKKVEPKSCDKTHTCPPCPAPELLAGPDVFLFPPKPKDTLMISRTPEVTCVVVDVSHEDPEVKFNWYVDGVEVHNAKTKPREEQYNSTYRVVSVLTVLHQDWLNGKEYKCKVSNKALPLPEEKTISKAKGQPREPQVYTLPPSREEMTKNQVSLTCLVKGFYPSDIAVEWESNGQPENNYKTTPPVLDSDGSFFLYSKLTVDKSRWQQGNVFSCSVLHEALHSHYTQKSLSLSPGK
light: DIQMTQSPSSLSASVGDTVTITCQANGYLNWYQQRRGKAPKLLIYDGSNLERGVPSRFSGRRWGQEYNLTINNLQPEDIATYFCQVYEFVVPGTRLDLKRTVAAPSVFIFPPSDEQLKSGTASVVCLLNNFYPREAKVQWKVDNALQSGNSQESVTEQDSKDSTYSLSSTLTLSKADYEKHKVYACEVTHQGLSSPVTKSFNRGEC
B5: 1.1.5-1 (antibody, human IgG1, kappa)
heavy: QVQLLQSGAAVTKPGASVRVSCEASGYNIRDYFIHWWRQAPGQGLQWVGWINPKTGQPNNPRQFQGRVSLTRHASWDFDTFSFYMDLKALRSDDTAVYFCARQRSDYWDFDVWGSGTQVTVSSASTKGPSVFPLAPSSKSTSGGTAALGCLVKDYFPEPVTVSWNSGALTSGVHTFPAVLQSSGLYSLSSVVTVPSSSLGTQTYICNVNHKPSNTKVDKKVEPKSCDKTHTCPPCPAPELLAGPDVFLFPPKPKDTLMISRTPEVTCVVVDVSHEDPEVKFNWYVDGVEVHNAKTKPREEQYNSTYRVVSVLTVLHQDWLNGKEYKCKVSNKALPLPEEKTISKAKGQPREPQVYTLPPSREEMTKNQVSLTCLVKGFYPSDIAVEWESNGQPENNYKTTPPVLDSDGSFFLYSKLTVDKSRWQQGNVFSCSVLHEALHSHYTQKSLSLSPGK
light: DIQMTQSPSSLSASVGDTVTITCQANGYLNWYQQKPGKAPKLLIYDGSKLERGVPSRFSGRRWGQEYNLTINNLQPEDIATYFCQVYEFVVPGTRLDLKRTVAAPSVFIFPPSDEQLKSGTASVVCLLNNFYPREAKVQWKVDNALQSGNSQESVTEQDSKDSTYSLSSTLTLSKADYEKHKVYACEVTHQGLSSPVTKSFNRGEC
B6: 1.1.6-1 (antibody, human IgG1, kappa)
heavy: QVQLLQSGAAVTKPGASVRVSCEASGYNIRDYFIHWWRQAPGQGLQWVGWINPKTGQPNNPRQFQGRVSLTRHASWDFDTFSFYMDLKALRSDDTAVYFCARQRSDYWDFDVWGSGTQVTVSSASTKGPSVFPLAPSSKSTSGGTAALGCLVKDYFPEPVTVSWNSGALTSGVHTFPAVLQSSGLYSLSSVVTVPSSSLGTQTYICNVNHKPSNTKVDKKVEPKSCDKTHTCPPCPAPELLAGPDVFLFPPKPKDTLMISRTPEVTCVVVDVSHEDPEVKFNWYVDGVEVHNAKTKPREEQYNSTYRVVSVLTVLHQDWLNGKEYKCKVSNKALPLPEEKTISKAKGQPREPQVYTLPPSREEMTKNQVSLTCLVKGFYPSDIAVEWESNGQPENNYKTTPPVLDSDGSFFLYSKLTVDKSRWQQGNVFSCSVLHEALHSHYTQKSLSLSPGK
light: DIQMTQSPSSLSASVGDTVTITCQANGYLNWYQQRRGKAPKLLIYDASKLERGVPSRFSGRRWGQEYNLTINNLQPEDIATYFCQVYEFVVPGTRLDLKRTVAAPSVFIFPPSDEQLKSGTASVVCLLNNFYPREAKVQWKVDNALQSGNSQESVTEQDSKDSTYSLSSTLTLSKADYEKHKVYACEVTHQGLSSPVTKSFNRGEC
B7: 1.1.3-1 (antibody, human IgG1, kappa)
heavy: QVQLLQSGAAVTKPGASVRVSCEASGYNIRDYFIHWWRQAPGQGLQWVGWINPKTGQPNNPRQFQGRVSLTRHASWDFDTFSFYMDLKALRSDDTAVYFCARQRSDYWDFDVWGSGTQVTVSSASTKGPSVFPLAPSSKSTSGGTAALGCLVKDYFPEPVTVSWNSGALTSGVHTFPAVLQSSGLYSLSSVVTVPSSSLGTQTYICNVNHKPSNTKVDKKVEPKSCDKTHTCPPCPAPELLAGPDVFLFPPKPKDTLMISRTPEVTCVVVDVSHEDPEVKFNWYVDGVEVHNAKTKPREEQYNSTYRVVSVLTVLHQDWLNGKEYKCKVSNKALPLPEEKTISKAKGQPREPQVYTLPPSREEMTKNQVSLTCLVKGFYPSDIAVEWESNGQPENNYKTTPPVLDSDGSFFLYSKLTVDKSRWQQGNVFSCSVLHEALHSHYTQKSLSLSPGK
light: EIQMTQSPSSLSASVGDTVTITCQANGYLNWYQQRRGKAPKLLIYDGSKLERGVPSRFSGRRWGQEYNLTINNLQPEDIATYFCQVYEFVVPGTRLDLKRTVAAPSVFIFPPSDEQLKSGTASVVCLLNNFYPREAKVQWKVDNALQSGNSQESVTEQDSKDSTYSLSSTLTLSKADYEKHKVYACEVTHQGLSSPVTKSFNRGEC
B8: 1.1.4-1 (antibody, human IgG1, kappa)
heavy: QVQLLQSGAAVTKPGASVRVSCEASGYNIRDYFIHWWRQAPGQGLQWVGWINPKTGQPNNPRQFQGRVSLTRHASWDFDTFSFYMDLKALRSDDTAVYFCARQRSDYWDFDVWGSGTQVTVSSASTKGPSVFPLAPSSKSTSGGTAALGCLVKDYFPEPVTVSWNSGALTSGVHTFPAVLQSSGLYSLSSVVTVPSSSLGTQTYICNVNHKPSNTKVDKKVEPKSCDKTHTCPPCPAPELLAGPDVFLFPPKPKDTLMISRTPEVTCVVVDVSHEDPEVKFNWYVDGVEVHNAKTKPREEQYNSTYRVVSVLTVLHQDWLNGKEYKCKVSNKALPLPEEKTISKAKGQPREPQVYTLPPSREEMTKNQVSLTCLVKGFYPSDIAVEWESNGQPENNYKTTPPVLDSDGSFFLYSKLTVDKSRWQQGNVFSCSVLHEALHSHYTQKSLSLSPGK
light: DIQMTQSPSSLSASVGDRVTITCQANGYLNWYQQRRGKAPKLLIYDGSKLERGVPSRFSGRRWGQEYNLTINNLQPEDIATYFCQVYEFVVPGTRLDLKRTVAAPSVFIFPPSDEQLKSGTASVVCLLNNFYPREAKVQWKVDNALQSGNSQESVTEQDSKDSTYSLSSTLTLSKADYEKHKVYACEVTHQGLSSPVTKSFNRGEC

Legend:
BSA = BSA (UniProt P02769 25-607); assay: single-point ELISA, BSA control
gp120 Bal = gp120 Bal (HIV (Bal)); assay: single-point ELISA at EC50 conc. of A-1
gp120 SHIV SF162 P3 = gp120 SHIV SF162 P3 (SHIV SF162 P3); assay: single-point ELISA at EC50 conc. of A-1
gp120 CAAN = gp120 CAAN (HIV (CAAN)); assay: single-point ELISA at EC50 conc. of A-1

Binder | ELISA A450 (BSA) [A450] | ELISA A450 (gp120 Bal) [A450] | ELISA A450 (gp120 SHIV SF162 P3) [A450] | ELISA A450 (gp120 CAAN) [A450]
B1 | 0.06 | 0.91 | 0.94 | 1.06
B2 |  | 1.13 | 0.59 | 0.75
B3 | 0.06 | 1.01 | 0.37 | 0.5
B4 | 0.06 | 0.95 | 1.02 | 1
B5 | 0.06 | 0.9 | 0.93 | 0.9
B6 | 0.07 | 0.91 | 0.41 | 0.46
B7 | 0.07 | 0.97 | 0.97 | 1
B8 | 0.06 | 0.96 | 1.07 | 1.09
